Publication PMC8960874

Target: Clone 16 (Clone 6-KiH-Clone 2) bispecific antibody (mouse | human) [IgG part: P01857]
Assay: SPR
Details: domain or fragment

With “SARS-CoV-2 spike receptor binding domain (RBD) protein with a C-terminal hexahistidine tag (from UniProt P0DTC2 319-541)” the Kd was 2.95 nM and the koff was 0.00461 s⁻¹.
